# Results taken from patent EP4640235A1 (Toray Industries, Inc., dated 2025).
# Changes are numbered by the printed parent chain.
# T1: human CAPRIN-1 protein expressed on cell membrane surfaces of human cancer cells (human, UniProt Q14444 2-709)
# T1 construct: whole, on cells; Endogenous protein on human cancer cells; Flow cytometry was done without permeation of the cell membranes
# T1 sequence (looked up): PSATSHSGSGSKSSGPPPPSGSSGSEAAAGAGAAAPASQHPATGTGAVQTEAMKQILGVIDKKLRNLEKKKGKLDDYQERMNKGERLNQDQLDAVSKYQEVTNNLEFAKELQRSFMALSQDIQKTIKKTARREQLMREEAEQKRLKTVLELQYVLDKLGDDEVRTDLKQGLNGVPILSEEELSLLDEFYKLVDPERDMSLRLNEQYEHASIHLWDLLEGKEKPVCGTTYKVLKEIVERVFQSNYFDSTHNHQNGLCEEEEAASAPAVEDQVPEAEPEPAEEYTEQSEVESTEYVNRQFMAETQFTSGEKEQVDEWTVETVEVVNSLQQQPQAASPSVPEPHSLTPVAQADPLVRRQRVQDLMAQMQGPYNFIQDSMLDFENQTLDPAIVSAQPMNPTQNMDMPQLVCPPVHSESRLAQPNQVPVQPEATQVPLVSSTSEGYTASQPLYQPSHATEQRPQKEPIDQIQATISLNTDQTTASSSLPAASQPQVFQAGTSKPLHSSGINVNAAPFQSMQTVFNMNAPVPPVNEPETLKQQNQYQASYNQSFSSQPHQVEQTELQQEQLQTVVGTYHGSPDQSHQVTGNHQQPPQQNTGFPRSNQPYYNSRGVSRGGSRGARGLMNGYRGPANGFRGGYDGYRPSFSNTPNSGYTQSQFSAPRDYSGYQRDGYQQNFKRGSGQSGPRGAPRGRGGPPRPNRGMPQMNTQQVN
# B1: anti-CAPRIN-1 antibody (a) (antibody, V domains shown)
# VH: AVTLDESGGGLQMSRGGLSLVCKASGFDFSSYQMNWIRQAPGKGLEFVAAINKFGNSTGHGAAVKGRVTISRDNGQSTVRLQLNNLRAEDTAIYFCTKHAYGYCGSGTWCAAGEIDAWGHGTEVIVSS
# VL: QAASTQPSSVSANPGETVEITCSGGGSYSYGWFQQKSPGSAPVTVIYYNNKRPSDIPSRFSGSKSGSTGTLTITGVQADDEAVYYCGSGDSTDTAVFGAGTTLTVLG
# B2: anti-CAPRIN-1 antibody (e) (antibody, V domains shown)
# VH: AVTLDESGGGLQTPGGALSLVCKASGFTFSGYDMLWVRQAPGKGLEWVAGIGSTGGGTDYGAAVKGRATISRDNGQSTVRLQLNNLRAEDTATYYCAKVAGGCNSGYCRDSPGSIDAWGHGTEVIVS
# VL: AVTQQPASVSANPGETVKITCSGGGSRNYYGWYQQKSPGSVPVTVIYYDDQRPSNIPSRFSGALSGSTSTLTITGVQADDEAVYFCGSADSNTYEGSFGAGTTLTVL
# B3: anti-CAPRIN-1 antibody (z) (antibody, V domains shown)
# VH: GPDLVKPGASVKISCKASGYSFTAYYMHWVKQSHGKSLEWIGRVNPNNGGTTYNQKFKGKAILTVDKSSSTAYMELRSLTFEDSAVYYCARRIYYGYFDYWGQGTTVTVSS
# VL: AFFAVSLGQRATISCKASQSVDYDGDSYMNWYQQKPGQPPKLLIYVASNLESGVPARFSGSGSGTDFTLNIHPVEEEDAATYYCQQSNEDPYTFGGGTKLEIKQ
# B4: anti-CAPRIN-1 antibody (i) (antibody, V domains shown)
# VH: GAELVRSGASVKMSCKASGYSFTDYNMYWVKQTPGQGLEWIGYIYPGNGGTNYNQKFKGKATLTADTSSSTAYMQISSLTSEDSAVYFCARDYDDGGYAMDYWGQGTTVTVSS
# VL: DIQMTQSPASLSASVGETVTITCRASGNIHNYLTWYQQKQGKSPQLLVYNAKTLADGVPSRFSGSGSGTQYSLKINRLQPEDFGSYYCQHFWNIPWTFGGGTKLNSR
# B5: anti-CAPRIN-1 antibody (c) (antibody, V domains shown)
# VH: AVTLDESGGGLQTPGGGLSLVCKASGFTFSSFDMGWVRQAPGKGLEFVAQINDAGSRTWYATAVKGRATISRDNGQTTVRLQLNNLRAEDTGTYYCTRGSGYVGAGAIDAWGHGTEVIVS
# VL: AALTQPSSVSANPGETVKITCSGGSGYYGWYQQQKSPGSAPVTVIYQNDKRPSDIPSRFSGSGSGSTNTLTITGVQAEDEAVYFCGRYDSTDSGIFGAGTTLTVL
# B6: anti-CAPRIN-1 antibody (o) (antibody, V domains shown)
# VH: EVQLHQFGAELVKPGASVKISCKASGYTFTDYNMDWVKQSHGKSLEWIGDINPNYDSTSYNQKFKGKATLTVDKSSSTAYMELRSLTSEDTAVYYCARSRSYDYEGFAYWGQGTLVTVSA
# VL: DIQMTQSPASLSASVGETVTITCRASGNIHNYLAWYQQKQGKSPQLLVYNAKTLADGVPSRFSGSGSGTQYSLKINSLQPEDFGSYYCQHFWSTLTFGAGTKLELKR
# B7: anti-CAPRIN-1 antibody (d) (antibody, V domains shown)
# VH: QSLEESGGDLVKPGASLTLTCTASGFSFSGSYYMSWVRQAPGKGLEWIAYIYIGDGVTAYANWAKGRFTISKASSTTVTLQMTSLTAADTATYFCARGNKLWGPGTLVTVSS
# VL: DVVMTQTPASVEAAVGGTVTIKCQASQSISSYLAWYQQKPGQPPKRLIYDASNLDSGVPSRFKGSGSGTDFTITISDLECADAATYYCQCTAVSSATIYGNAFGGGTEVVVK
# B8: anti-CAPRIN-1 antibody (j) (antibody, V domains shown)
# VH: DAELVKPGASVKISCKASGYTFTDHSIHWVQQKPEQGLEWIGYISPGNGNIKYNEKFKGKATLTADKSSSTAYMQLNSLTSEDSAVYFCKRSLGRGGPYYFDYWGQGTTVTVSS
# VL: DIVLTQAAPSLPVTPGESVSISCRSSKSLLHSNGNTYLYWFLQRPGQSPQLLIYRMSNLASGVPDRFSGSGSGTAFTLRISRVEAEDVGVYYCMQHREYPVTFGSGPN
# B9: anti-CAPRIN-1 antibody (af) (antibody, V domains shown)
# VH: EVQLVESGGGLVQPGGSLRLSCAASGFSLSSHSLGWVRQAPGKGLEWIGDIRSGGSAYYANWAKGRFTISRDNSKNTLYLQMNSLRAEDTAVYYCTRTNGPSDLTNRLDLWGQGTLVTVSS
# VL: QVLTQSPSSLSASVGDRVTINCQASQSLYNNENLAWFQQKPGKVPKRLIYGASTLASGVSSRFSGSGSGTEFTLTISSLQCEDFAIYYCLGEFSCGSADCFAFGGGTKVEIK
# B10: anti-CAPRIN-1 antibody (ah) (antibody, V domains shown)
# VH: B9 VH
# VL: EQVLTQSPSSLSASVGDRVTINCQASQSLYNNENLAWFQQKPGKVPKRLIYGASTLASGVSSRFSGSGSGTEFTLTISNLQPEDFAIYYCLGEFSCGSADCFAFGGGTKVEIK
# B11: anti-CAPRIN-1 antibody (ai) (antibody, V domains shown)
# VH: B9 VH with Y94F
# VL: B10 VL with Q2I, I87T
# B12: anti-CAPRIN-1 antibody (ag) (antibody, V domains shown)
# VH: B9 VH with Y94F
# VL: B9 VL
# B13: anti-CAPRIN-1 antibody (b) (antibody, V domains shown)
# VH: B9 VH with V2Q, Q3S
# VL: B9 VL
# B14: anti-CAPRIN-1 antibody (ak) (antibody, V domains shown)
# VH: B9 VH with Y94F
# VL: B10 VL
# B15: anti-CAPRIN-1 antibody (aj) (antibody, V domains shown)
# VH: B9 VH
# VL: B10 VL with Q2I, I87T
# Molecular target: T1, human CAPRIN-1 protein expressed on …
# Assay: flow cytometry on cancer cells
row,binding result,Binder
1,binds,B1
2,binds,B2
3,binds,B3
4,binds,B4
5,binds,B5
6,binds,B6
7,binds,B7
8,binds,B8
9,binds,B9
10,binds,B10
11,binds,B11
12,binds,B12
13,binds,B13
14,binds,B14
15,binds,B15
